We go through one molecule from patent publication US20260183429A1 (TRUSTEES OF COLUMBIA UNIVERSITY IN THE CITY OF NEW YORK, published 2026).

The assay addresses T1, endogenous MFN2 in WT mouse embryonic fibroblasts (MEFs) (mouse, UniProt Q80U63 1-757).
T1 construct: Detected in situ by proximity ligation assay; also called mitofusin-2
T1 sequence (looked up): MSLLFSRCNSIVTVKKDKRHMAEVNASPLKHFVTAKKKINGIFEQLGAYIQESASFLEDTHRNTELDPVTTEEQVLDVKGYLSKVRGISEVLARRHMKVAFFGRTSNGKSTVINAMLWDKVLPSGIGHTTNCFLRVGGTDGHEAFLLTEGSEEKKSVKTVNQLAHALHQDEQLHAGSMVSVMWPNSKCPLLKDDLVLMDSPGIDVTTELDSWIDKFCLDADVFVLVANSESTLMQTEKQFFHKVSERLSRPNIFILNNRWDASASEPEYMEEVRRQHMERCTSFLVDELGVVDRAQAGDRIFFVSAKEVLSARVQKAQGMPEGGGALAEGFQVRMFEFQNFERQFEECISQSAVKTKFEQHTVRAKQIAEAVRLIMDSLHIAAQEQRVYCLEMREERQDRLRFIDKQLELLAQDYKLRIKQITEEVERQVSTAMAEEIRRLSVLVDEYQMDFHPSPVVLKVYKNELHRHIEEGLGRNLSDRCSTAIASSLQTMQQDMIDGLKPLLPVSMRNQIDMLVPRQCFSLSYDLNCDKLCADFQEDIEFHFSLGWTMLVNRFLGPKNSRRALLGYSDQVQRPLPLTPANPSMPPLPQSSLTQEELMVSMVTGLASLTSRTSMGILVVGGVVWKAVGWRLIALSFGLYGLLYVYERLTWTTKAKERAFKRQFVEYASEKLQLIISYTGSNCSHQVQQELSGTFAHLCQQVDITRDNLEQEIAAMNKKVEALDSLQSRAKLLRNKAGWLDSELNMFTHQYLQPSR
Nature of the assay: proximity ligation assay of MFN2 and ATAT1 in WT MEFs.

B1: endogenous ATAT1 in WT mouse embryonic fibroblasts (MEFs) (enzyme, UniProt Q8K341 1-421, looked up)
chain: MEFPFDVDALFPERITVLDQHLRPPARRPGTTTPARVDLQQQIMTIVDELGKASAKAQHLPAPITSALRMQSNRHVIYILKDTSARPAGKGAIIGFLKVGYKKLFVLDDREAHNEVEPLCILDFYIHESVQRHGHGRELFQHMLQKERVEPHQLAIDRPSPKLLKFLNKHYNLETTVPQVNNFVIFEGFFAHQHRPPTSSLRATRHSRAAVADPIPAAPARKLPPKRAEGDIKPYSSSDREFLKVAVEPPWPLNRAPRRATPPAHPPPRSSSLGNSPDRGPLRPFVPEQELLRSLRLCPPHPTARLLLATDPGGSPAQRRRTRGTPWGLVAQSCHYSRHGGFNTSFLGTGNQERKQGEQEAEDRSASEDRVLLLDGSGEEPTQTGAPRAQAPPPQSWTVGGDIMNARVIRNLQERRSTRPW
notes: Detected in situ by proximity ligation assay
Take B1: the binding result was “binds”.
